# In FireProtDB (doi:10.1016/j.jmb.2008.02.039):
# B1: Ribonuclease HII, O74035 (parent)
# chain: MKIAGIDEAGRGPVIGPMVIAAVVVDENSLPKLEELKVRDSKKLTPKRREKLFNEILGVLDDYVILELPPDVIGSREGTLNEFEVENFAKALNSLKVKPDVIYADAADVDEERFARELGERLNFEAEVVAKHKADDIFPVVSAASILAKVTRDRAVEKLKEEYGEIGSGYPSDPRTRAFLENYYREHGEFPPIVRKGWKTLKKIAEKVESEKKAEERQATLDRYFRKV
# Variants of: B1
# Conditions: Thermococcus kodakarensis (strain ATCC BAA-918 / JCM 12380 / KOD1), pH 9, CD, reversible: Yes, structure 1IO2, whole UniProt chain shown; for ddG of mutation (higher = less stable) / denaturant m value / denaturant midpoint (higher = more stable) / unfolding free energy: 50 °C, GdnHCl, Tris-HCl 20 mM; for Tm / change of melting temperature, mutant - wild type (higher = more stable): Thermal, Gly-NaOH 20 mM
Variant,ddG of mutation (higher = less stable) [kJ/mol],denaturant m value [kcal/mol/M],denaturant midpoint (higher = more stable) [M],unfolding free energy [kJ/mol],Tm [°C],"change of melting temperature, mutant - wild type (higher = more stable) [°C]"
MKIAGIDEAGRGPVAGPMVIAAVVVDENSLPKLEELKVRDSKKLTPKRREKLFNEILGVLDDYVILELPPDVIGSREGTLNEFEVENFAKALNSLKVKPDVIYADAADVDEERFARELGERLNFEAEVVAKHKADDIFPVVSAASILAKVTRDRAVEKLKEEYGEIGSGYPSDPRTRAFLENYYREHGEFPPIVRKGWKTLKKIAEKVESEKKAEERQATLDRYFRKV [I15A],8.91,4.3,1.47,26.4,–,–
MKIAGIDEAGRGPVIGPMVAAAVVVDENSLPKLEELKVRDSKKLTPKRREKLFNEILGVLDDYVILELPPDVIGSREGTLNEFEVENFAKALNSLKVKPDVIYADAADVDEERFARELGERLNFEAEVVAKHKADDIFPVVSAASILAKVTRDRAVEKLKEEYGEIGSGYPSDPRTRAFLENYYREHGEFPPIVRKGWKTLKKIAEKVESEKKAEERQATLDRYFRKV [I20A],18.5,5.74,1.05,25.3,76.1,-8.4
MKIAGIDEAGRGPVIGPMVIAAVVVDENSLPKLEELKVRDSKKLTPKRREKLFNEALGVLDDYVILELPPDVIGSREGTLNEFEVENFAKALNSLKVKPDVIYADAADVDEERFARELGERLNFEAEVVAKHKADDIFPVVSAASILAKVTRDRAVEKLKEEYGEIGSGYPSDPRTRAFLENYYREHGEFPPIVRKGWKTLKKIAEKVESEKKAEERQATLDRYFRKV [I56A],16.6,5.35,1.13,25.3,75.8,-8.7
MKIAGIDEAGRGPVIGPMVIAAVVVDENSLPKLEELKVRDSKKLTPKRREKLFNEILGVLDDYVILELPPDVIGSREGTLNEFEVENFAKAANSLKVKPDVIYADAADVDEERFARELGERLNFEAEVVAKHKADDIFPVVSAASILAKVTRDRAVEKLKEEYGEIGSGYPSDPRTRAFLENYYREHGEFPPIVRKGWKTLKKIAEKVESEKKAEERQATLDRYFRKV [L92A],12,6,1.33,33.5,78.9,-5.6
MKIAGIDEAGRGPVIGPMVIAAVVVDENSLPKLEELKVRDSKKLTPKRREKLFNEILGVLDDYVILELPPDVIGSREGTLNEFEVENFAKALNSLKVKPDVAYADAADVDEERFARELGERLNFEAEVVAKHKADDIFPVVSAASILAKVTRDRAVEKLKEEYGEIGSGYPSDPRTRAFLENYYREHGEFPPIVRKGWKTLKKIAEKVESEKKAEERQATLDRYFRKV [I102A],16.9,5.9,1.12,27.7,73.8,-10.7
MKIAGIDEAGRGPVIGPMVIAAVVVDENSLPKLEELKVRDSKKLTPKRREKLFNEILGVLDDYVILELPPDVIGSREGTLNEFEVENFAKALNSLKVKPDVIYADAADVDEERFAREAGERLNFEAEVVAKHKADDIFPVVSAASILAKVTRDRAVEKLKEEYGEIGSGYPSDPRTRAFLENYYREHGEFPPIVRKGWKTLKKIAEKVESEKKAEERQATLDRYFRKV [L118A],22,5.9,0.9,22.2,70.8,-13.7
MKIAGIDEAGRGPVIGPMVIAAVVVDENSLPKLEELKVRDSKKLTPKRREKLFNEILGVLDDYVILELPPDVIGSREGTLNEFEVENFAKALNSLKVKPDVIYADAADVDEERFARELGERLNFEAEVVAKHKADDIFPVVSAASIAAKVTRDRAVEKLKEEYGEIGSGYPSDPRTRAFLENYYREHGEFPPIVRKGWKTLKKIAEKVESEKKAEERQATLDRYFRKV [L147A],10.9,6.19,1.38,35.7,–,–
MKIAGADEAGRGPVIGPMVIAAVVVDENSLPKLEELKVRDSKKLTPKRREKLFNEILGVLDDYVILELPPDVIGSREGTLNEFEVENFAKALNSLKVKPDVIYADAADVDEERFARELGERLNFEAEVVAKHKADDIFPVVSAASILAKVTRDRAVEKLKEEYGEIGSGYPSDPRTRAFLENYYREHGEFPPIVRKGWKTLKKIAEKVESEKKAEERQATLDRYFRKV [I6A],–,–,–,–,79.3,-5.2
MKIAGIDEAGRGPVIGPMVIAAVVVDENSLPKAEELKVRDSKKLTPKRREKLFNEILGVLDDYVILELPPDVIGSREGTLNEFEVENFAKALNSLKVKPDVIYADAADVDEERFARELGERLNFEAEVVAKHKADDIFPVVSAASILAKVTRDRAVEKLKEEYGEIGSGYPSDPRTRAFLENYYREHGEFPPIVRKGWKTLKKIAEKVESEKKAEERQATLDRYFRKV [L33A],–,–,–,–,72.6,-11.9
